Read-outs that look alike come from different tables or passages of the source.
Tests used:
Test in all cases: cell-based or functional assay
[1] = target: T1, S 단백질 of SARS-CoV-2 BetaCoV/Korea/KCDC03/2020 (614D, S형) (SARS-CoV-2)
[2] = target: T1, S 단백질 of SARS-CoV-2 …; remark: listed apart in the source
[3] = target: S 단백질 of SARS-CoV-2 hCoV-19/South Korea/KNIH04/2020 (L형) (SARS-CoV-2)
[4] = target: S 단백질 of SARS-CoV-2 hCoV-19/Korea/KCDC31/2020 (V형) (SARS-CoV-2)
[5] = target: T1, S 단백질 of SARS-CoV-2 …; remark: listed apart in the source

B1: No. 139 항체 (Full IgG) (antibody, V domains shown)
VH: QITLKESGPTLVKPTQTLTLTCSFSGFSLSTSGVGVGWIRQPPGKALEWLALIDWDDNKYHTTSLKTRLTISKDTSKNQVVLTMTNMDPVDTATYYCARIPGFLRYRNRYYYYGMDVWGQGTTVTVSS
VL: ELVLTQPPSVSAAPGQKVTISCSGSSSNIGNNYVSWYQQLPGTAPKLLIYDNNKRPSGIPDRFSGSKSGTSATLGITGLQTGDEADYYCGTWDSSLSAGVFGGGTELTVL
With B1 as the binder, how does the “IC50 (ng/ml), PRNT” value [1] read?
The value was 4.1 ng/mL.

And the “IC50, PRNT” value [1]?
The value was 8.37 ng/mL.

And the “IC50 (ng/ml), PRNT” value [2]?
The value was 29.8 ng/mL.

And the “IC50 (ng/ml), PRNT” value [3]?
Its value is 4.79 ng/mL.

And the “IC50 (ng/ml), PRNT” value [4]?
The value was 8 ng/mL.

And the “IC50 (ng/ml), PRNT” value [5]?
Its value is 6.76 ng/mL.

— patent KR20220012792A (dated 2022)
